Source: PMC8828901, “Sox9 is involved in the thyroid differentiation program and is regulated by crosstalk between TSH, TGFβ and thyroid transcription factors”

How the values were obtained:
CREB (TNT-CREB) = CREB (TNT-CREB) (UniProt P16220 1-327); assay: EMSA; specific; 40 mM Hepes pH 7.9, 75 mM KCl, 0.2 mM EDTA, 0.5 mM DTT, 150 ng/ul poly(dI-dC), 5% Ficoll, room temperature, 30 min; 7 ug TNT protein; competitor 100-fold or 50-fold (Methods); conditions: protein: ivt; chain copies: 2; label: 32P; blunt
Smad3 (TNT-Smad3) = Smad3 (TNT-Smad3) (UniProt P84022 1-425); assay: as above; conditions: protein: ivt; label: 32P; blunt
Chain of Smad3 (TNT-Smad3) (P84022 whole entry): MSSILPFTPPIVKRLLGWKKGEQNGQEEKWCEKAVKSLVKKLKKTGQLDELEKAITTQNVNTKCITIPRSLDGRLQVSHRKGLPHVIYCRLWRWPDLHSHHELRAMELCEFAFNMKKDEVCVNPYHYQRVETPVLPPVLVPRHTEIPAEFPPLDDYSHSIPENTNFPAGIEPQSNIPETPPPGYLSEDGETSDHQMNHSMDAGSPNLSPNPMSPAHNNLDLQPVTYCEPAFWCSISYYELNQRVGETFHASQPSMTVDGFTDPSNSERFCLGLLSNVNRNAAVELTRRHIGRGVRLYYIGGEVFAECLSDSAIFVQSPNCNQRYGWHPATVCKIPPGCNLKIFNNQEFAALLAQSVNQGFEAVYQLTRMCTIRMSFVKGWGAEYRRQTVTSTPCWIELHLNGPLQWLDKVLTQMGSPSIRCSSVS

Chain of CREB (TNT-CREB) (P16220 whole entry): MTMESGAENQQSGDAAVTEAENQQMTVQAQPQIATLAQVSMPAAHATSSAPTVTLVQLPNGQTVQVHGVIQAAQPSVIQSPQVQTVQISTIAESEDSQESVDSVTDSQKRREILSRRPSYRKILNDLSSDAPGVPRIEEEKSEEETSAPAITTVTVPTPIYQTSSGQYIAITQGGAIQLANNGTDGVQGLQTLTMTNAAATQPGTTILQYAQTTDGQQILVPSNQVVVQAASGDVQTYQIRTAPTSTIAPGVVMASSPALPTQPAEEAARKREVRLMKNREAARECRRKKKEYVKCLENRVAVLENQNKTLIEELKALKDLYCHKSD

Binder | binding result (CREB (TNT-CREB)) | binding result (Smad3 (TNT-Smad3))
Sox9 promoter CRE (dsDNA) DNA 1: CCTCGAGTCTCGTCACCCA DNA 2: TGGGTGACGAGACTCGAGG | binds | –
Sox9 promoter Smad site (dsDNA) DNA 1: CTCGGAACTGTCTGGAAACTTCAG DNA 2: CTGAAGTTTCCAGACAGTTCCGAG | – | binds
